Measured values: PMC2877795, “Laminin chain assembly is regulated by specific coiled-coil interactions” (Journal of Structural Biology, 2010)
Values belong to the binder of their own block, whether it stands above or below them.

Columns and labels:
Conditions in all cases: both partners purified
[1] = target: T1, recombinant mouse laminin γ2 chain C-terminal coiled-coil fragment (949–1191) (mouse, UniProt Q61092 949-1191); test: native gel or EMSA; mixtures of one β and one γ chain fragment; 10% non-denaturing PAGE (acid gels for basic complexes); mixtures reduced, heated to 70 °C for 5 min and cooled; run overnight at 50 V; Coomassie; bands confirmed by in-gel trypsin digestion and mass spectrometry
T1 construct: two residues (GlySer) left from the protease recognition site after thrombin cleavage; laminin γ2 chain, mouse, C-terminal coiled-coil fragment, residues 949-1191 of the native chain (243 residues); source: E. coli JM109(DE3), purified (Ni2+-Sepharose, denaturing, 8 M urea), 6xHis tag removed by thrombin; not shown: 6xHis, N-terminal, cleaved; pPEP-T leader (short C-terminal fragment of the …)
T1 sequence: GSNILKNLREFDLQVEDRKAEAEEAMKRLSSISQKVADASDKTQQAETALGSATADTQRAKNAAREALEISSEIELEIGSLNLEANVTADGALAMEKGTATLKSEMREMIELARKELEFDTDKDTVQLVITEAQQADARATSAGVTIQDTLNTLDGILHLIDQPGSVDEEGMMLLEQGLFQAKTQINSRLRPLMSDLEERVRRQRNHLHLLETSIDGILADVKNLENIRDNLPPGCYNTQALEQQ

[2] = target: T2, β2γ3 complex of the recombinant mouse laminin coiled-coil fragments (mouse, UniProt Q61292 1575-1799; Q9R0B6 1344-1581); test: native gel or EMSA; mixtures of one α, one β and one γ chain fragment; 10% non-denaturing PAGE (acid gels for basic complexes); mixtures reduced, heated to 70 °C for 5 min and cooled; run overnight at 50 V, room temperature, no cooling; Coomassie; bands confirmed by in-gel trypsin digestion and mass spectrometry
T2 construct: two residues (GlySer) left from the protease recognition site after thrombin cleavage; laminin β2 chain, mouse, residues 1575-1799 of the native chain; as m7; laminin γ3 chain, mouse, residues 1344-1581 of the native chain; as m11; in the αβγ tests all three chains were mixed, the βγ complex was not isolated beforehand; source: mixture of the purified E. coli fragments; not shown: 6xHis, …
T2 sequence 1: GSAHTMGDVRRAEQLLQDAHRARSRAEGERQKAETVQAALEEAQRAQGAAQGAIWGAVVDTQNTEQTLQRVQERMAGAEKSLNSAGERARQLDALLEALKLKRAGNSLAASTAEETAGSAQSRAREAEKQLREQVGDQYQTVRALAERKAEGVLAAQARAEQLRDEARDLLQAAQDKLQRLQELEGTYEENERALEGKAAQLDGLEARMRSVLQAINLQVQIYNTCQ
T2 sequence 2: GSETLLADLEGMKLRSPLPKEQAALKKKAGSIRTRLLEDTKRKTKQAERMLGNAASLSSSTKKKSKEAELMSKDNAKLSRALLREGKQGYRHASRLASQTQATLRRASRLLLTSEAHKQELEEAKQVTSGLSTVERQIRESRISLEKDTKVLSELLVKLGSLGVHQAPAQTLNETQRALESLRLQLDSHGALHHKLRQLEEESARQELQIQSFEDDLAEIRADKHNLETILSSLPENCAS

[3] = target: T3, β2γ1 complex of the recombinant mouse laminin coiled-coil fragments (mouse, UniProt Q61292 1575-1799; P02468 1362-1607); test: as above
T3 construct: two residues (GlySer) left from the protease recognition site after thrombin cleavage; laminin β2 chain, mouse, residues 1575-1799 of the native chain; as m7; laminin γ1 chain, mouse, residues 1362-1607 of the native chain; as m9; in the αβγ tests all three chains were mixed, the βγ complex was not isolated beforehand; source: mixture of the purified E. coli fragments; not shown: 6xHis, …
T3 sequence 1: T2 sequence 1
T3 sequence 2: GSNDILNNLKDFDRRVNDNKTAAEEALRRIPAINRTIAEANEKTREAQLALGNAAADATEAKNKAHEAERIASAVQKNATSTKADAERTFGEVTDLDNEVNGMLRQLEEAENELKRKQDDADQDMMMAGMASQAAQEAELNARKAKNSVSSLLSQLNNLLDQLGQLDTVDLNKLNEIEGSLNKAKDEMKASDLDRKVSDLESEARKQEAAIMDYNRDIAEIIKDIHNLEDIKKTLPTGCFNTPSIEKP

[4] = target: T4, β1γ1 complex of the recombinant mouse laminin coiled-coil fragments (mouse, UniProt P02469 1561-1786; P02468 1362-1607); test: as above
T4 construct: two residues (GlySer) left from the protease recognition site after thrombin cleavage; laminin β1 chain, mouse, residues 1561-1786 of the native chain; as m6; laminin γ1 chain, mouse, residues 1362-1607 of the native chain; as m9; heterodimer by AUC; in the αβγ tests all three chains were mixed, the βγ complex was not isolated beforehand; source: mixture of the purified E. coli fragments; not …
T4 sequence 1: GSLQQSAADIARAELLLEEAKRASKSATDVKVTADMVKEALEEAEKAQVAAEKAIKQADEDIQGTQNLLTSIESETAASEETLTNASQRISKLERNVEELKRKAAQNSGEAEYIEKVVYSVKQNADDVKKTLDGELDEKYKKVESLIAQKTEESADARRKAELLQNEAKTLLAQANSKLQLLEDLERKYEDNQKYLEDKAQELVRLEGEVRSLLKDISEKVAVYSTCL
T4 sequence 2: T3 sequence 2

[5] = target: T5, β1γ3 complex of the recombinant mouse laminin coiled-coil fragments (mouse, UniProt P02469 1561-1786; Q9R0B6 1344-1581); test: as above
T5 construct: two residues (GlySer) left from the protease recognition site after thrombin cleavage; laminin β1 chain, mouse, residues 1561-1786 of the native chain; as m6; laminin γ3 chain, mouse, residues 1344-1581 of the native chain; as m11; in the αβγ tests all three chains were mixed, the βγ complex was not isolated beforehand; source: mixture of the purified E. coli fragments; not shown: 6xHis, …
T5 sequence 1: T4 sequence 1
T5 sequence 2: T2 sequence 2

[6] = target: T6, recombinant mouse laminin γ1 chain C-terminal coiled-coil fragment (1362–1607) (mouse, UniProt P02468 1362-1607); test: native gel or EMSA; mixtures of one β and one γ chain fragment; 10% non-denaturing PAGE (acid gels for basic complexes); mixtures reduced, heated to 70 °C for 5 min and cooled; run overnight at 50 V; Coomassie; bands confirmed by in-gel trypsin digestion and mass spectrometry
T6 construct: two residues (GlySer) left from the protease recognition site after thrombin cleavage; laminin γ1 chain, mouse, C-terminal coiled-coil fragment, residues 1362-1607 of the native chain (246 residues); source: E. coli JM109(DE3), purified (Ni2+-Sepharose, denaturing, 8 M urea), 6xHis tag removed by thrombin; not shown: 6xHis, N-terminal, cleaved; pPEP-T leader (short C-terminal fragment of the …)
T6 sequence: T3 sequence 2

[7] = target: T7, recombinant mouse laminin γ3 chain C-terminal coiled-coil fragment (1344–1581) (mouse, UniProt Q9R0B6 1344-1581); test: as above
T7 construct: two residues (GlySer) left from the protease recognition site after thrombin cleavage; laminin γ3 chain, mouse, C-terminal coiled-coil fragment, residues 1344-1581 of the native chain (238 residues); source: E. coli JM109(DE3), purified (Ni2+-Sepharose, denaturing, 8 M urea), 6xHis tag removed by thrombin; not shown: 6xHis, N-terminal, cleaved
T7 sequence: T2 sequence 2

- binding result [6]: binds
- binding result [7]: binds
- binding result [1]: binds
B4: recombinant mouse laminin β2 chain C-terminal coiled-coil fragment (1575–1799) (domain or fragment)
chain: T2 sequence 1
notes: two residues (GlySer) left from the protease recognition site after thrombin cleavage; laminin β2 chain, mouse, C-terminal coiled-coil fragment, residues 1575-1799 of the native chain (225 residues); source: E. coli JM109(DE3), purified (Ni2+-Sepharose, denaturing, 8 M urea), 6xHis tag removed by thrombin; not shown: 6xHis, N-terminal, cleaved

- binding result [6]: binds
- binding result [7]: binds
- binding result [1]: binds
B5: recombinant mouse laminin β1 chain C-terminal coiled-coil fragment (1561–1786) (domain or fragment)
chain: T4 sequence 1
notes: two residues (GlySer) left from the protease recognition site after thrombin cleavage; laminin β1 chain, mouse, C-terminal coiled-coil fragment, residues 1561-1786 of the native chain (226 residues); source: E. coli JM109(DE3), purified (Ni2+-Sepharose, denaturing, 8 M urea), 6xHis tag removed by thrombin; not shown: 6xHis, N-terminal, cleaved

- binding result [3]: binds
- binding result [4]: binds
B6: recombinant mouse laminin α1 chain C-terminal coiled-coil fragment (1911–2125) (domain or fragment)
chain: GSHVHSNIQTLTEEAEMLAADAHKTANKTDLISESLASRGKAVLQRSSRFLKESVSTRRKQQGITMKLDELKNLTSQFQESMDNIMKQANDSLAMLRESPGGMREKGRKARELAAAANESAVKTLEDVLALSLRVFNTSEDLSRVNATVQETNDLLHNSTMTTLLAGRKMKDMEMQANLLLDRLKPLKTLEENLSRNLSEIKLLISRARKQVASIKV
notes: two residues (GlySer) left from the protease recognition site after thrombin cleavage; laminin α1 chain, mouse, C-terminal coiled-coil fragment, residues 1911-2125 of the native chain (215 residues); source: E. coli JM109(DE3), purified (Ni2+-Sepharose, denaturing, 8 M urea), 6xHis tag removed by thrombin; not shown: 6xHis, N-terminal, cleaved; pPEP-T leader (short C-terminal fragment of the …)

The remaining lines, values behind:

B1: recombinant mouse laminin β3 chain C-terminal coiled-coil fragment (945–1168) (domain or fragment)
chain: GSLSQTKQDIARARRLQAEAEQARSRAHAVEGQVDDVVGNLRQGTVALQEAQDTMQGTGRSLRLIQERVGEVQQVLVPAERLVKGMKEQMSGFWARMKELRRQAQEEQAQAMQARQLAEGASQQAMNAQEGFKRLKQKYTELKDRLGQSPVLGEQGNRILSIKMEAEELFGETMEMMDKMKDMESELLRGSQAIMLRSADLSGLEKRVEQIRSYINGRVLYYATCK
notes: two residues (GlySer) left from the protease recognition site after thrombin cleavage; laminin β3 chain, mouse, C-terminal coiled-coil fragment, residues 945-1168 of the native chain (224 residues); source: E. coli JM109(DE3), purified (Ni2+-Sepharose, denaturing, 8 M urea), 6xHis tag removed by thrombin; not shown: 6xHis, N-terminal, cleaved
- binding result [1]: binds

B2: recombinant mouse laminin α5 chain C-terminal coiled-coil fragment (2525–2748) (domain or fragment)
chain: GSNAYSSILQAVQAAEDAAGQALRQASRTWEMVVQRGLAAGARQLLANSSALEETILGHQGRLGLAQGRLQAAGIQLHNVWARKNQLAAQIQEAQAMLAMDTSETSEKIAHAKAVAAEALSTATHVQSQLQGMQKNVERWQSQLGGLQGQDLSQVERDASSSVSTLEKTLPQLLAKLSRLENRGVHNASLALSANIGRVRKLIAQARSAASKVKVSMKFNGRSGVR
notes: two residues (GlySer) left from the protease recognition site after thrombin cleavage; laminin α5 chain, mouse, C-terminal coiled-coil fragment, residues 2525-2748 of the native chain (224 residues); source: E. coli JM109(DE3), purified (Ni2+-Sepharose, denaturing, 8 M urea), 6xHis tag removed by thrombin; not shown: 6xHis, N-terminal, cleaved
- binding result [2]: binds
- binding result [3]: binds
- binding result [4]: binds

B3: recombinant mouse laminin α2 chain C-terminal coiled-coil fragment (1924–2145) (domain or fragment)
chain: GSYSNIKDYIDEAEKVAREAKELAQGATKLATSPQGLLKEDAKGSLQKSFRILNEAKKLANDVKGNHNDLNDLKTRLETADLRNSGLLGALNDTMDKLSAITNDTAAKLQAVKEKAREANDTAKAVLAQVKDLHQNLDGLKQNYNKLADSVAKTNAVVKDPSKNKIIADAGTSVRNLEQEADRLIDKLKPIKELEDNLKKNISEIKELINQARKQANSIKVSVS
notes: two residues (GlySer) left from the protease recognition site after thrombin cleavage; laminin α2 chain, mouse, C-terminal coiled-coil fragment, residues 1924-2145 of the native chain (222 residues); source: E. coli JM109(DE3), purified (Ni2+-Sepharose, denaturing, 8 M urea), 6xHis tag removed by thrombin; not shown: 6xHis, N-terminal, cleaved; pPEP-T leader (short C-terminal fragment of the …)
- binding result [3]: binds
- binding result [5]: binds
- binding result [4]: binds
